Experimental data published in publication PMC3864901, “A Conserved Sequence Extending Motif III of the Motor Domain in the Snf2-Family DNA Translocase Rad54 Is Critical for ATPase Activity” (PLoS ONE, 2013).

Experiments:
[1] = tested on: Rad54 (Saccharomyces cerevisiae); experiment: EMSA (glutaraldehyde-fixed, agarose); settings: 13 mM Mg acetate, 25 mM TEA-Ac pH 7.5, 13 mM Mg acetate, 1.8 mM DTT, 100 ug/ml BSA, 11.25% glycerol, 113 mM NaCl, 30 uM bp pUC19, 30 C 15 min, then 0.25% glutaraldehyde 15 min …
[2] = substrate: Nc1ncnc2c1ncn2[C@@H]1O[C@H](COP(=O)(O)OP(=O)(O)OP(=O)(O)O)[C@@H](O)[C@H]1O; experiment: NADH-coupled ATPase assay, Michaelis-Menten fit; format: biochemical, Saccharomyces cerevisiae; settings: 1.5 uM pUC19 dsDNA, 2.5 mM free Mg(OAc)2, 25 mM HEPES pH 7.5, 30 C, 5 nM Rad54
Excerpt: NADH-coupled ATPase assay, Michaelis-Menten fit on Rad54 | Michaelis-Menten parameters of Rad54 and Rad54-2A as determined from the ATP titrations in B

**Q.** For pUC19 supercoiled dsDNA, which binding (bp per Rad54 monomer (all DNA bound)) ([1]; 5 mM ATP + regeneration system) is on record?
**A.** 36

**Q.** What about the binding (bp per Rad54 monomer (all DNA bound)) ([1]; no nucleotide) of the same molecule?
**A.** 36

B1: Rad54 (Saccharomyces cerevisiae S288C) (protein)
chain: MARRRLPDRPPNGIGAGERPRLVPRPINVQDSVNRLTKPFRVPYKNTHIPPAAGRIATGSDNIVGGRSLRKRSATVCYSGLDINADEAEYNSQDISFSQLTKRRKDALSAQRLAKDPTRLSHIQYTLRRSFTVPIKGYVQRHSLPLTLGMKKKITPEPRPLHDPTDEFAIVLYDPSVDGEMIVHDTSMDNKEEESKKMIKSTQEKDNINKEKNSQEERPTQRIGRHPALMTNGVRNKPLRELLGDSENSAENKKKFASVPVVIDPKLAKILRPHQVEGVRFLYRCVTGLVMKDYLEAEAFNTSSEDPLKSDEKALTESQKTEQNNRGAYGCIMADEMGLGKTLQCIALMWTLLRQGPQGKRLIDKCIIVCPSSLVNNWANELIKWLGPNTLTPLAVDGKKSSMGGGNTTVSQAIHAWAQAQGRNIVKPVLIISYETLRRNVDQLKNCNVGLMLADEGHRLKNGDSLTFTALDSISCPRRVILSGTPIQNDLSEYFALLSFSNPGLLGSRAEFRKNFENPILRGRDADATDKEITKGEAQLQKLSTIVSKFIIRRTNDILAKYLPCKYEHVIFVNLKPLQNELYNKLIKSREVKKVVKGVGGSQPLRAIGILKKLCNHPNLLNFEDEFDDEDDLELPDDYNMPGSKARDVQTKYSAKFSILERFLHKIKTESDDKIVLISNYTQTLDLIEKMCRYKHYSAVRLDGTMSINKRQKLVDRFNDPEGQEFIFLLSSKAGGCGINLIGANRLILMDPDWNPAADQQALARVWRDGQKKDCFIYRFISTGTIEEKIFQRQSMKMSLSSCVVDAKEDVERLFSSDNLRQLFQKNENTICETHETYHCKRCNAQGKQLKRAPAMLYGDATTWNHLNHDALEKTNDHLLKNEHHYNDISFAFQYISH
notes: wild-type yeast Rad54, overexpressed in S. cerevisiae and purified as in earlier work
**Q.** Which results are given for B1?
**A.** Km [2]: 170 ± 40 µM; kcat [2]: 1,219 ± 45 min-1
